Blank lines part the entries; values can stand above or below the substance they belong to.
Assays:
Experiment in all cases: SEC-MALS; 100 μl of purified protein injected at 12 mg/ml (high concentration); Superdex 200 10/300 GL, room temperature, 10 mM HEPES pH 7.4, 200 mM NaCl, 5 mM β-ME, 0.4 ml/min
[1] = molecular target: αγ heterodimer of human NAD-dependent isocitrate dehydrogenase (human) (UniProt P50213)
[2] = molecular target: mutant α_(Y126F)β heterodimer of human NAD-dependent isocitrate dehydrogenase (human) (UniProt P50213)
[3] = molecular target: mutant α_(Y126F)γ heterodimer of human NAD-dependent isocitrate dehydrogenase (human) (UniProt P50213)
[4] = molecular target: αβ heterodimer of human NAD-dependent isocitrate dehydrogenase (human) (UniProt P50213)

Sequence of mutant α_(Y126F)β heterodimer of human NAD-dependent isocitrate dehydrogenase (P50213 whole entry, looked up, stated change not applied, one chain of several): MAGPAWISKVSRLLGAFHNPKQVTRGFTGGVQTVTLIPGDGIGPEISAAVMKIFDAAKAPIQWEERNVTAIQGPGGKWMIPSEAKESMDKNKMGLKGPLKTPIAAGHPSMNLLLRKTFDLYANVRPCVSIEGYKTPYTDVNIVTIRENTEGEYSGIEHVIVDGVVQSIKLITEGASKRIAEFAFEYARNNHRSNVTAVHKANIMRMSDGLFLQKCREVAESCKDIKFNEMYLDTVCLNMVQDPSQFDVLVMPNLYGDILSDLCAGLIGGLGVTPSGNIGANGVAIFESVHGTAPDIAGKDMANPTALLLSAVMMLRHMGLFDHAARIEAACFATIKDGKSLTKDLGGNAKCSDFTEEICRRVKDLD
Sequence of αβ heterodimer of human NAD-dependent isocitrate dehydrogenase (P50213 whole entry, looked up, one chain of several): as the sequence (P50213 whole entry, looked up, stated change not applied, one chain of several) above

stoichiometry N [1]: 2
Substance: αγ heterodimer of human NAD-dependent isocitrate dehydrogenase (from UniProt P50213 28-366; P51553 40-393) (complex)

stoichiometry N [2]: 2
Substance: mutant α_(Y126F)β heterodimer of human NAD-dependent isocitrate dehydrogenase (from UniProt P50213 55-366) (complex)

stoichiometry N [3]: 2
Substance: mutant α_(Y126F)γ heterodimer of human NAD-dependent isocitrate dehydrogenase (from UniProt P50213 55-366; P51553 40-393) (complex)

stoichiometry N [4]: 2
Substance: αβ heterodimer of human NAD-dependent isocitrate dehydrogenase (from UniProt P50213 28-366) (complex)

Reference: publication PMC5282582
